Molecular target: CLDmut (CD4-linker-DC-SIGN fusion protein with a linker of 8 Gly4Ser repeats and the Cys-to-Ser back (human) (UniProt P01730))
Assay: BLI

With “trimeric HIV-1 CN54 gp140 (domain or fragment)” the Kd was 0.39 nM, the koff was 1.62e-05 s⁻¹ and the kon was 41100 M⁻¹ s⁻¹.

From PMC9323411
